{
  "source": "patent US20130274129",
  "test_system": "AvrBs3-KRAB",
  "test": "cell_activity",
  "conditions": "two copies of TAL site, LacZ reporter, 293FT; around 40% with one copy",
  "data": [
    {"substance": "AvrBs3 TAL binding site in CMV promoter reporter", "values": [
      {"measurement": "activity", "result": 70, "unit": "% repression"}
    ]}
  ]
}
